The values that follow come from patent publication US20250270339A1 (Alector, published 2025).

Assay [1] concerns the target T1, Full length Mouse TfR on CHO cells (mouse, UniProt Q62351 1-763).
T1 construct: also called CHO + muTfR
The assay is described as follows: FACS MFI, supernatant. The method, then:
(§1) A total of 1536 anti-TfR hybridoma supernatants were initially screened for their ability to differentially bind CHO cells overexpressing human or mouse TfR cells compared to CHO parental cells by FACS. Overexpressing cells were harvested, washed and labeled with Pacific Blue, FITC and Pacific Orange dyes (ThermoFisher) to create uniquely barcoded cell populations. Barcoded cells (5×10⁴ of each cell population) were aliquoted into 96-well U-bottom plates and incubated with 50 μl of hybridoma cell culture supernatant or […] of commercially available purified mouse anti-human TfR monoclonal antibody (Sigma Aldrich, Cat #SAB4700515) and rat anti-mouse TfR antibody (Invitrogen, Waltham, MA, Cat #R17217) on ice for 30 minutes. After this primary incubation, the supernatants were removed via centrifugation, the cells were washed twice with 175 μl of ice-cold FACS buffer (PBS+1% FBS+2 mM EDTA), and the cells were then further incubated on ice for 20 minutes with anti-mouse IgG Fc-allophycocyanin (APC) or anti-rat IgG Fc-APC (Jackson Labs, Cat #115-136-071 and Cat #112-136-071, respectively) (diluted 1:1000). Following this secondary antibody incubation, the cells were again washed twice with ice-cold FACS buffer and resuspended in a final volume of 50 μl of FACS buffer. Binding intensity on cells was analyzed using the FACS Canto system (BD Biosciences), and the ratio of APC Mean Fluorescence Intensity (MFI) on each barcoded cell population was determined for each anti-TfR hybridoma supernatant tested.

The target in assay [2] is T2, Full length human TfR on CHO cells (human, UniProt P02786 1-760).
T2 construct: also called CHO + huTfR; CHO + hTfR
T2 sequence (P02786 whole entry): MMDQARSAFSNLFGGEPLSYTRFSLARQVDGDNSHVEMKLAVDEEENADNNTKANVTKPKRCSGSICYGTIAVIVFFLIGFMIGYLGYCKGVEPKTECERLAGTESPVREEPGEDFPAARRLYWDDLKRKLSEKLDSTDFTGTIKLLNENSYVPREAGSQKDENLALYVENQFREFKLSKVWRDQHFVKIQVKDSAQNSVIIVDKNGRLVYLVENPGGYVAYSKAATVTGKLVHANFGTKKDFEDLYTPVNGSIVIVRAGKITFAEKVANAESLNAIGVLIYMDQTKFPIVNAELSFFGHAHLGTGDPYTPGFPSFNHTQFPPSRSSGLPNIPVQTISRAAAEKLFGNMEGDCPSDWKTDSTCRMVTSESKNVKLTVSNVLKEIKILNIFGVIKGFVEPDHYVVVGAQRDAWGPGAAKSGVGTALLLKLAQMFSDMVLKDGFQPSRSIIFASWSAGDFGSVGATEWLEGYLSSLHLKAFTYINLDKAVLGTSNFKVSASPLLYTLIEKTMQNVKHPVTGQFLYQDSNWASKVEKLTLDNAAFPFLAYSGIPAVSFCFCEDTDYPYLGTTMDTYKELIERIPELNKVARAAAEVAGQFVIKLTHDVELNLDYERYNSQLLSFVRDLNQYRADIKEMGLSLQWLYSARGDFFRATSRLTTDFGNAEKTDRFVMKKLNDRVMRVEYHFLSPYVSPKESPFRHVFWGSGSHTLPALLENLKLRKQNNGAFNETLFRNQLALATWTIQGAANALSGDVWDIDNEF
As to the kind of experiment: FACS MFI, supernatant. The method, then: as §1

In assay [3] the target is T1, Full length Mouse TfR on CHO cells. As to the kind of experiment: FACS, CHO+muTfR. The procedure:
as §1

Assay [4] concerns the target T3, huTfR Apical Domain-Avi-His (human, biotin on the Avi tag (BirA) where captured on streptavidin).
T3 construct: also called huTfR apical Avi-His; hTfR Apical
T3 chain: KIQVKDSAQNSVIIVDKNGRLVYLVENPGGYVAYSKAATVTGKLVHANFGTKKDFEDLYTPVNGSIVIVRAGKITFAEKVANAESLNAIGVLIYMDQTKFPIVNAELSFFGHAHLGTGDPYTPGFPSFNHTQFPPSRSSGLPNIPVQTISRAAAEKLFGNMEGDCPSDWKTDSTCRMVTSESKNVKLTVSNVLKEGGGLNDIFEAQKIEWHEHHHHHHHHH
The assay is described as follows: ELISA OD450, supernatant. The method, then: Hybridoma culture supernatants from 319 hybridomas obtained as described above were screened for their ability to bind Avi-His-tagged huTfR ECD, huTfR apical domain, and muTfR ECD (as described in Example 1) as compared to binding to an irrelevant Avi-His-tagged control protein. Briefly, 96-well polystyrene plates were coated with 5 μg/ml of streptavidin (Thermo Fisher, Cat #PI21125) in coating buffer (0.05M carbonate buffer, pH 9.6, Sigma, Cat #C3041) overnight at 4° C. Coated plates were then blocked with ELISA diluent (PBS+0.5% BSA+0.05% Tween20) for one hour. Blocking buffer was removed and Avi-His-tagged human TfR, human TfR apical domain, mouse TfR and an irrelevant Avi-His-tagged protein were added at 1 μg/ml in ELISA diluent and captured for 1 hour at room temperature. After washing three times with 300 μl of PBST (PBS+0.05% Tween20, Thermo 28352), the hybridoma cell culture supernatants were added (50 μl/well) to each well. After 30 minutes of incubation at room temperature, the plates were washed three times with 300 μl of PBST. Anti-mouse IgG Fc-HRP or anti-rat IgG Fc-HRP (Jackson Immunoresearch, Cat #115-035-071 and 112-036-071, respectively) secondary antibodies were diluted 1:5000 in ELISA diluent, added to each well at 50 μl/well, and incubated for 30 minutes at room temperature with shaking. After a final set of washes (3×300 μl in PBST), 50 μl/well of BioFx TMB substrate (Surmodics, Cat #TMBW-1000-01) was added to the wells. The reaction was then quenched after 5-10 mins with 50 μl/well of 2N sulfuric acid. The plates were read for absorbance at 450 nm on a SpectraMax M5 (Molecular Devices, Sunnyvale, CA) using SoftMax Pro software.

T1 sequence (Q62351 whole entry): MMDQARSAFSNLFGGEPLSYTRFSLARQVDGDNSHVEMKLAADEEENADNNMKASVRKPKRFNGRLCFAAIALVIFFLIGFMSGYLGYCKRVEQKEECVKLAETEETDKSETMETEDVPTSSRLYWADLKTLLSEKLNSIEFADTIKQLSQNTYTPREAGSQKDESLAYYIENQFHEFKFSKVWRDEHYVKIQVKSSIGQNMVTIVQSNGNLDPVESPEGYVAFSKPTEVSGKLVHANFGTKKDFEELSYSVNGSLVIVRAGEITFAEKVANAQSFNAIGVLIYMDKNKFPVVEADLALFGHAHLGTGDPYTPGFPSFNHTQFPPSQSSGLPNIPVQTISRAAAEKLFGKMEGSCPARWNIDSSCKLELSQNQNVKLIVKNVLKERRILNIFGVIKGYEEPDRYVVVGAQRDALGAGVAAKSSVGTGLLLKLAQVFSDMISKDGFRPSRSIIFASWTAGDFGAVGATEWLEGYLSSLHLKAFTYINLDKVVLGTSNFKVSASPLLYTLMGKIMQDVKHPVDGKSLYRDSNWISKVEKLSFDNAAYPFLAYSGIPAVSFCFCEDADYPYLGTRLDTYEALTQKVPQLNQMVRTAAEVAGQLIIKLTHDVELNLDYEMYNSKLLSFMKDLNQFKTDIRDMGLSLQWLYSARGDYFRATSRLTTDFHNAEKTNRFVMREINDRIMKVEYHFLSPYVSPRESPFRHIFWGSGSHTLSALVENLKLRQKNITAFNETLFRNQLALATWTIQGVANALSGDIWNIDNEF

B1: TfR32 (mouse hybridoma antibody) (antibody, V domains shown)
VH: QVQLQQSGADLVRPGTSVKVSCKASGNAFSNYLIEWVKQRPGQGLEWIGVINPGSGETNYNEKFKGKATLTADKSSSTAYMQLSSLTSDDSAVYFCAIRYDGPLLDHWGQGTSVTVSS
VL: SIVMTQTPKFLLVSAGDRVTITCKASQSVSNDVAWFQQKPGQSPKLLIYYASNRYTGVPDRFTGSGYGTDFTFTIRNVQAEDLAVYFCQQDYISPTFGAGTKLELK
notes: mouse IgG in hybridoma supernatant
For the molecule B1, the “fold over parental (CHO WT)” value in assay [1] was determined as 1 fold; in assay [2], 137 fold. Besides, the binding result in assay [3] is on record as “no binding”. In addition, the “ratio over irrelevant protein” value in assay [4] turned out to be 25 fold.

B2: TfR25 (mouse hybridoma antibody) (antibody, V domains shown)
VH: QVQLQQSGPELVKPGTSVKMSCKASGYTFTNYYIHWMKQRPGQGLEWIGWIYPGDGNTHYNERFKGKTTLTADKSSSTVYMFLTSLTSEDSAIYFCAKDKDMPGMDYWGQGTSVTVSS
VL: DMVMTQSPSSLTVTAGEKVTMSCKSSQSLFNSENQKNYLTWYQQKPGQPPKLLISWASTRESGVPDRFTGSGSGTDFTLTINSVQAEDLAVYYCQNDYSYPLTFGAGTKLELK
notes: as for B1
As to B2, the “fold over parental (CHO WT)” value was 1 fold in assay [1] and 135 fold in assay [2]. Moreover, the binding result in assay [3] is recorded as “no binding”. Also, the “ratio over irrelevant protein” value in assay [4] came out at 33 fold.

B3: TfR26 (mouse hybridoma antibody) (antibody, V domains shown)
VH: QVQLHQSGPELVKPGASVKMSCKASGYTFTNYYIHWVKQRPGQGLEWIGWIYPGDGVTHYNEKFKGKTTLTADKSSSTAYMLLSSLTSEDSAIYFCARDKDVPGMDYWGQGTSVTVSS
VL: DIVMTQSPSSLTVTSGEKVTMSCKSSQSLLNSENQKNYLTWYQQKPGQPPKLLIYWASTRESGVPDRFTGSGSGPDFTLTISSVQAEDLAVYYCQNDYSYPLTFGAGTKLELK
notes: as for B1
With B3, the “fold over parental (CHO WT)” value in assay [1] came to 1 fold; in assay [2] it was 285 fold. Also, the binding result in assay [3] is “no binding”. In addition, the “ratio over irrelevant protein” value in assay [4] was found to be 35 fold.

B4: TfR31 (mouse hybridoma antibody) (antibody, V domains shown)
VH: DVQLQESGPGLVKPSQSLSLTCTVTGYSITSDYAWNWIRQFPGNKLEWMGYISYSGRTSYNPSLKSRISFTRDTSKNQFFLQLNSVTTEDTATYYCAGWGYRYLEDYWGQGTSVTVSS
VL: QIVLTQSPAIMSASPGEKVTMTCSASSSISSMHWYQLKPGTSPKKWIYDTSKLASGVPARFSGSGSGTSYSLTISSMEAEDAATYYCHQRSSYPWTFGGGTKLEIK
notes: as for B1
Regarding B4, the “fold over parental (CHO WT)” value in assay [1] was 1 fold; in assay [2], 90 fold. The binding result in assay [3] is reported as “no binding”. For the same molecule, in assay [4], the “ratio over irrelevant protein” value is 20 fold.
